According to patent US20190218253A1 (NATIONAL UNIVERSITY OF SINGAPORE, published 2019):
Square brackets hold non-standard residues; d marks the D form.

B1: mut R3A,Q6A (peptide)
peptide: MSARKAAKPQHI
notes: One of the double mutants with the loss of only one key residue (group m57); also called SALL4 (1-12) peptide, double mutant R3A-Q6A
B2: mut K5A,Q6A (peptide)
peptide: MSRRAAAKPQHI
notes: One of the double mutants with the loss of only one key residue (group m57); also called SALL4 (1-12) peptide, double mutant K5A-Q6A
B3: mut R4A,Q6A (peptide)
peptide: MSRAKAAKPQHI
notes: One of the double mutants with the loss of only one key residue (group m57); also called SALL4 (1-12) peptide, double mutant R4A-Q6A
B4: WT SALL4 peptide (1-12 aa), MSRRKQAKPQHI (peptide)
peptide: MSRRKQAKPQHI
notes: As used in ITC, SPR, crystal structure and the alanine-scan FP assay; also called SALL4 WT; 12-aa SALL4 peptide
B5: Peptide 1 (Ac-MSRRKQAKPQHI-NH2) (peptide)
peptide: Ac-MSRRKQAKPQHI-NH2
notes: also called WT; original 12-residue WT peptide
B6: Peptide 31 (Ac-RRKQAKpQHI-NH2) (peptide)
peptide: Ac-RRKQAK[code p]QHI-NH2
modifications: not fully specified; printed as Ac-RRKQAKpQHI-NH2
notes: P7 mutation of peptide 6; position 7 printed in lower case
B7: Peptide 46 (Ac-RRKFAKFQWI-NH2), FFW (peptide)
peptide: Ac-RRKFAKFQWI-NH2
notes: Gln4Phe, Pro7Phe and His9Trp of peptide 6; also called FFW peptide

Molecular target: T1, retinoblastoma binding protein 4 (RBBp4) (UniProt Q09028 1-425)
T1 construct: Bought protein; Crystal structure numbering runs at least over residues 33-404; also called RbAp48
T1 sequence (Q09028 whole entry, the tested form may be a part): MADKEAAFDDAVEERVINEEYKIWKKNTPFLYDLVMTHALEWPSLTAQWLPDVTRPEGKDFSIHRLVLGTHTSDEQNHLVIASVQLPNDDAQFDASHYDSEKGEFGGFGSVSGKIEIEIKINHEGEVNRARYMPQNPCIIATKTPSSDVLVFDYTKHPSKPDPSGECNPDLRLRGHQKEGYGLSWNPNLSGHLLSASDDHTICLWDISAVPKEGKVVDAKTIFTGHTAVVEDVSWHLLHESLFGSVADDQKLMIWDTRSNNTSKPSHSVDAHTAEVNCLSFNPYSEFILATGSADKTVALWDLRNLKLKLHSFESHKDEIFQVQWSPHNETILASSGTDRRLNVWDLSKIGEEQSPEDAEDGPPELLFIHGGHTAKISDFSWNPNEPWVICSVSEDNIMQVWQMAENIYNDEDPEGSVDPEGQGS
Assay: fluorescence polarization competition; peptide titrated into RBBp4 with C-labelled FITC-SALL4 WT peptide as the displaced tracer
Procedure: (§1) FIGS. 3A-3E. […] The difference in the binding free energy (ΔΔGbind) of the alanine mutants (ΔGₘᵤₜₐₙₜ, Ala7 was mutated to glycine) and wild type (ΔG_{wild type}) was calculated (ΔΔGbind=ΔGₘᵤₜₐₙₜ−ΔG_{wild type}). ΔΔGbind was tabulated (left) and plotted in a bar chart (right). […] Mutated residues are highlighted in red. The IC₅₀ of each peptide, including WT, was determined by Fluorescence Polarization (FP). […] Polarization was measured in mP. […] Pep-1 carrier was added to the peptide to facilitate cellular penetration of the peptides.
(§2) In silico analysis using computational alanine scanning was performed on the key residues identified by the crystal contacts.

MSARKQAKPQHI [SALL4 (1-12) peptide bearing the R3A mutation] and B1 are within 1.5-fold of each other in IC50: 4500 nM for the first, 4100 nM for the second.

B2 and B3 are within 1.5-fold of each other in IC50: 4400 nM for the first, 4700 nM for the second.

Molecular target: T1, retinoblastoma binding protein 4 (RBBp4)
T1 sequence (Q09028 whole entry): as the sequence (Q09028 whole entry, the tested form may be a part) above
Assay: cell-based or functional assay

With B4 the “PTEN expression by Q-PCR in SNU398 cells treated with peptide” value was 3 fold.

Molecular target: T1, retinoblastoma binding protein 4 (RBBp4)
Assay: fluorescence polarization competition: peptide titrated into RBBp4 + C-terminal FITC-labelled WT SALL4 peptide

Ac-MSRRKQAKPQH-NH2 (C-terminal truncation of WT) [Peptide 2 (Ac-MSRRKQAKPQH-NH2)] and Ac-MSRRKQAKP-NH2 (C-terminal truncation of WT) [Peptide 4 (Ac-MSRRKQAKP-NH2)] are within 1.5-fold of each other in IC50: 1400 nM for the first, 1960 nM for the second.

Compared with B5, Ac-RRKFAKPQHI-NH2 [Peptide 24 (Ac-RRKFAKPQHI-NH2)] is 26-fold lower in IC50: 1300 nM for the first, 50 nM for the second. The second is the more potent here.

Going from B4 to MSRAKQAKPQHI [SALL4 (1-12) peptide bearing the R4A mutation], the IC50 rises from 1000 nM to 8900 nM (8.9-fold). The first is the more potent here.

First: MSRRKAAKPQHI [SALL4 (1-12) peptide bearing the Q6A mutation]
Second: MSARKQAKPQHI [SALL4 (1-12) peptide bearing the R3A mutation]
The IC50 of the first is 2.9-fold lower: 1300 nM for the first, 3800 nM for the second. The first is the more potent here.

Work on MSRRAQAKPQHI [SALL4 (1-12) peptide bearing the K5A mutation] yielded an IC50 of 7000 nM.

Molecular target: T1, retinoblastoma binding protein 4 (RBBp4)
Assay: as above
Remark: another data set of the same source
Procedure: (§3) Reactions were incubated at room temperature before the plate was read with an Envision instrument (Perkin Elmer). IC₅₀ values of peptides were determined using Prism (GraphPad).

First: Ac-MSRRKQAKPQH-NH2 (C-terminal truncation of WT) [Peptide 2 (Ac-MSRRKQAKPQH-NH2)]
Second: Ac-MSRRKQAKPQ-NH2 (C-terminal truncation of WT) [Peptide 3 (Ac-MSRRKQAKPQ-NH2)]
The IC50 of the first is 1.6-fold higher: 1290 nM for the first, 800 nM for the second.

First: B6
Second: Ac-MSRRKQAKP-NH2 (C-terminal truncation of WT) [Peptide 4 (Ac-MSRRKQAKP-NH2)]
The IC50 of the first is 3.5-fold higher: 6600 nM for the first, 1910 nM for the second.

Compared with B5, B7 is 45-fold lower in IC50: 1040 nM for the first, 23 nM for the second.

Going from Ac-SRRKQAKPQHI-NH2 (N-terminal truncation of WT) [Peptide 5 (Ac-SRRKQAKPQHI-NH2)] to Ac-RRKQAKPQHI-NH2 [Peptide 6 (printed Ac-…-NH2; WT without Met1 and Ser2)], the IC50 falls from 600 nM to 360 nM (1.7-fold). The second is the more potent here.

Going from Ac-RRKQAKPQWI-NH2 [Peptide 41 (Ac-RRKQAKPQWI-NH2)] to Ac-RRKQRKPQHI-NH2 [Peptide 26 (Ac-RRKQRKPQHI-NH2)], the IC50 rises from 120 nM to 460 nM (3.8-fold). The first is the more potent here.

Going from Ac-RRKQAKFQHI-NH2 [Peptide 34 (Ac-RRKQAKFQHI-NH2)] to Ac-RRKQAKAQHI-NH2 (Ala scan of peptide 6) [Peptide 13 (Ac-RRKQAKAQHI-NH2)], the IC50 rises from 170 nM to 270 nM (1.6-fold). The first is the more potent here.

Ac-RRKQARPQHI-NH2 [Peptide 30 (Ac-RRKQARPQHI-NH2)] and Ac-RRKQAKPLHI-NH2 [Peptide 38 (Ac-RRKQAKPLHI-NH2)] are within 1.5-fold of each other in IC50: 330 nM for the first, 460 nM for the second.

First: Ac-RRKEAKPQHI-NH2 (Q4 mutation of peptide 6) [Peptide 20 (Ac-RRKEAKPQHI-NH2)]
Second: Ac-RKKQAKPQHI-NH2 (R2 mutation of peptide 6) [Peptide 18 (Ac-RKKQAKPQHI-NH2)]
The IC50 of the first is 1.5-fold higher: 3490 nM for the first, 2300 nM for the second.

First: Ac-RRKNAKPQHI-NH2 (Q4 mutation of peptide 6) [Peptide 21 (Ac-RRKNAKPQHI-NH2)]
Second: Ac-RRKQAKVQHI-NH2 (P7 mutation of peptide 6) [Peptide 32 (Ac-RRKQAKVQHI-NH2)]
The IC50 of the first is 6.3-fold lower: 920 nM for the first, 5800 nM for the second.

Going from Ac-RRKQALPQHI-NH2 [Peptide 28 (Ac-RRKQALPQHI-NH2)] to Ac-RRKQAKPQVI-NH2 [Peptide 42 (Ac-RRKQAKPQVI-NH2)], the IC50 rises from 310 nM to 480 nM (1.5-fold). The first is the more potent here.

Ac-RRKQAKPQHL-NH2 (To be rechecked) [Peptide 44 (printed Ac-RRKCIAKPOHL-NH2)] and Ac-RRKQAKPQAI-NH2 [Peptide 15 (Ac-RRKQAKPQAI-NH2)] are within 1.5-fold of each other in IC50: 590 nM for the first, 730 nM for the second.

Ac-RRKQAKPEHI-NH2 [Peptide 35 (Ac-RRKQAKPEHI-NH2)] and Ac-RRKQAFPQHI-NH2 [Peptide 29 (Ac-RRKQAFPQHI-NH2)] are within 1.5-fold of each other in IC50: 570 nM for the first, 530 nM for the second.

Going from Ac-RRKVAKPQHI-NH2 (Q4 mutation of peptide 6) [Peptide 22 (Ac-RRKVAKPQHI-NH2)] to Ac-RRKQAKLQHI-NH2 (P7 mutation of peptide 6) [Peptide 33 (Ac-RRKQAKLQHI-NH2)], the IC50 rises from 410 nM to 4400 nM (11-fold). The first is the more potent here.

First: Ac-RRRQAKPQHI-NH2 (K3 mutation of peptide 6) [Peptide 19 (Ac-RRRQAKPQHI-NH2)]
Second: Ac-RRKQAAPQHI-NH2 [Peptide 12 (Ac-RRKQAAPQHI-NH2)]
The IC50 of the first is 3.9-fold higher: 630 nM for the first, 160 nM for the second. The second is the more potent here.

Going from Ac-RRKQAKPAHI-NH2 [Peptide 14 (Ac-RRKQAKPAHI-NH2)] to Ac-KRKQAKPQHI-NH2 (R1 mutation of peptide 6) [Peptide 17 (Ac-KRKQAKPQHI-NH2)], the IC50 rises from 120 nM to 3800 nM (32-fold). The first is the more potent here.

First: Ac-RRKQAKPQYI-NH2 [Peptide 40 (Ac-RRKQAKPQYI-NH2)]
Second: Ac-RRKQAKPNHI-NH2 [Peptide 36 (Ac-RRKQAKPNHI-NH2)]
The IC50 of the first is 3.6-fold higher: 2850 nM for the first, 790 nM for the second.

First: Ac-RRKQAVPQHI-NH2 [Peptide 27 (Ac-RRKQAVPQHI-NH2)]
Second: Ac-RRKAAKPQHI-NH2 [Peptide 11 (Ac-RRKAAKPQHI-NH2)]
The IC50 of the first is 4.8-fold higher: 910 nM for the first, 190 nM for the second. The second is the more potent here.

Ac-RRKLAKPQHI-NH2 (Q4 mutation of peptide 6) [Peptide 23 (Ac-RRKLAKPQHI-NH2)] and Ac-RRKQAKPVHI-NH2 [Peptide 37 (Ac-RRKQAKPVHI-NH2)] are within 1.5-fold of each other in IC50: 270 nM for the first, 350 nM for the second.

Ac-RRKQAKPQFI-NH2 [Peptide 39 (Ac-RRKQAKPQFI-NH2)] and Ac-RRKQAKPQHA-NH2 [Peptide 16 (Ac-RRKQAKPQHA-NH2)] are within 1.5-fold of each other in IC50: 340 nM for the first, 460 nM for the second.

Work on Ac-RRKQKKPQHI-NH2 [Peptide 25 (Ac-RRKQKKPQHI-NH2)] yielded an IC50 of 380 nM.

Molecular target: T1, retinoblastoma binding protein 4 (RBBp4)
Assay: fluorescence polarization competition, ratio of IC50s
Procedure: These three substitutions (Gln4Phe, Pro7Phe, and His9Trp) were incorporated into peptide 46 ([…], named FFW hereof, (SEQ ID NO: 14)).
as §3

In the case of B7, the “fold increase in affinity compared with the 12-residue WT peptide” value is reported as over 56 fold.

With Ac-RRKFAKPQHI-NH2 [Peptide 24 (Ac-RRKFAKPQHI-NH2)] the “fold enhancement in binding affinity over peptide 6” value was 7 fold.

With Ac-RRKQAKPQWI-NH2 [Peptide 41 (Ac-RRKQAKPQWI-NH2)] the “fold improvement of binding affinity compared with peptide 6” value was 3 fold.

Molecular target: T1, retinoblastoma binding protein 4 (RBBp4)
Assay: fluorescence polarization competition; peptide titrated into RBBp4 with C-labelled FITC-SALL4 WT peptide as the displaced tracer
Remark: another data set of the same source
Procedure: as §1, §2

MSARKQAKPQHI [SALL4 (1-12) peptide bearing the R3A mutation] and B1 are within 1.5-fold of each other in IC50: 4500 nM for the first, 4100 nM for the second.

B2 and B3 are within 1.5-fold of each other in IC50: 4400 nM for the first, 4700 nM for the second.

Molecular target: T1, retinoblastoma binding protein 4 (RBBp4)
Assay: isothermal titration calorimetry, peptide titrated into RBBp4, 1:1 binding model
Procedure: (§4) ITC was carried out with an Auto-iTC200 instrument from Microcal Inc. at 25° C. […] of RBBp4 in 50 mM Tris and 100 mM NaCl at pH 7.4 was loaded into the ITC cell. Sal14 peptide at […] was auto-loaded into the syringe. The titration was carried out with 18 injections of 2.4 μl, performed over a period of 30 min with stirring at 1000 rpm. The ITC data was analysed using Origin software from Microcal.

Work on B4 yielded a Ka of 960000 M⁻¹.

Molecular target: T1, retinoblastoma binding protein 4 (RBBp4)
Assay: isothermal titration calorimetry, peptide titrated into RBBp4, 25 °C; isothermal titration calorimetry
Procedure: as §4

B4 was tested, and the Kd was 1040 nM.

Molecular target: T1, retinoblastoma binding protein 4 (RBBp4)
Assay: SPR (Biacore T200), RBBp4 amine-coupled to CM5 chip, peptide as analyte; surface plasmon resonance
Procedure: SPR studies were performed using a Biacore T200 biosensor (GE Healthsciences). ˜12,000 resonance units (RU) of RBBp4 were immobilised by amine coupling to the carboxymethylated dextran matrix of a Series S CM5 chip (Biacore, GE Healthcare). […] The association time and flow rate were set at 60 s and 30 μl/min respectively.

With B4 the Kd was 1500 nM.

Binder B4 has a koff of 0.026 s⁻¹.

B4 showed a kon of 16800 M⁻¹ s⁻¹.
